Here are results for 31 substances from patent US20200181223A1.

Experiment [1] concerns the target human insulin receptor isoform B (IR-B) (human) (UniProt P06213).
Experiment [2] concerns the target Glu(A14)Des(B30)-Insulin (human).
For experiment [3], the target named is Glu(A14)Val(B16)Val(B25)Des(B30)-Insulin (human).
For experiment [4], the target named is Human Insulin (wild-type) (human).
In experiment [5] the target is Glu(A14)Val(B25)Des(B30)-Insulin (human).
Experiment [6] addresses Glu(A14)Val(B16)Des(B30)-Insulin (human).
The target of experiment [7] is Val(B25)Des(B30)-Insulin (human).
Experiment [8] concerns the target Glu(A14)Ile(B25)Des(B30)-Insulin (human).
Experiment [9] has as its target human insulin receptor isoform B (IR-B) (human) (UniProt P06213). Nature of the experiment: SPA competition with [125I]-labelled human insulin, plasma membranes of CHO cells overexpressing the IR; 0 means below the detection limit.
The target is the same in experiment [10]. Nature of the experiment: SPA competition with [125I]-labelled human insulin, plasma membranes of CHO cells overexpressing the IR.
For experiment [11] the target is unchanged. Briefly: SPA competition with [125I]-labelled human insulin, plasma membranes of CHO cells overexpressing the IR; category B (<20%) as defined in paragraph 522.
Experiment [12] has as its target Gly(A21)Trp(B16)His(B25)Des(B30)-Insulin (human).
For experiment [13], the target named is Glu(A14)His(B16)Des(B30)-Insulin (human).
Chain of Glu(A14)His(B16)Des(B30)-Insulin (human) (chain, as listed by the source, chain 1 of 2): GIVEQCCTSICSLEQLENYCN
Chain of Glu(A14)His(B16)Des(B30)-Insulin (human) (chain, as listed by the source, chain 2 of 2): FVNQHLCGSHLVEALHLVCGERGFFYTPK
Experiment [14] has as its target Leu(B25)Des(B30)-Insulin (human).
Experiment [15] has as its target Glu(A14)Gly(A21)Trp(B25)Des(B30)-Insulin (human).

Chain of purified pepsin (from porcine stomach mucosa) in simulated gastric fluid (P00791 60-385): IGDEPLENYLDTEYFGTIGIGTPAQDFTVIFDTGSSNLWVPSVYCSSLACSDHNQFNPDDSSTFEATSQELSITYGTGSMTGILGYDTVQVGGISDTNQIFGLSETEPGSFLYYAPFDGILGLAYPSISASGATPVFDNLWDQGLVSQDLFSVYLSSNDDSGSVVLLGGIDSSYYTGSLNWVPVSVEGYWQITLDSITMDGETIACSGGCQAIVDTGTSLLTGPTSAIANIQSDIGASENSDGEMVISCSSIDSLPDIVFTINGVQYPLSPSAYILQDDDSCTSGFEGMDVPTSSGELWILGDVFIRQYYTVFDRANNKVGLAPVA
Chain of Glu(A14)Ile(B16)Des(B30)-Insulin (ligand) (chain): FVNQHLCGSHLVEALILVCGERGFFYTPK
Chain of Glu(A14)Glu(B16)His(B25)Des(B30)-Insulin (ligand) (chain): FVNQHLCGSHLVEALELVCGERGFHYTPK
Chain of Glu(A14)Val(B16)Val(B25)Des(B30)-Insulin (ligand) (chain): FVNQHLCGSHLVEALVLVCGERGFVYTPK
Chain of Glu(A14)Ile(B16)Val(B25)Des(B30)-Insulin (ligand) (chain): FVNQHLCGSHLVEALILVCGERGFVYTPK
Chain of Glu(A14)Glu(B3)Val(B16)Val(B25)Des(B30)-Insulin (ligand) (chain): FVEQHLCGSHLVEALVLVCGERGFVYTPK
Chain of Glu(A14)Glu(B3)Val(B16)Des(B30)-Insulin (ligand) (chain): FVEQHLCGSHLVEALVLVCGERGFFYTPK
Chain of Glu(A14)Val(B16)Ile(B25)Des(B30)-Insulin (ligand) (chain): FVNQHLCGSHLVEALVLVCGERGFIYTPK
Chain of Glu(A14)His(B16)His(B25)Des(B30)-Insulin (ligand) (chain): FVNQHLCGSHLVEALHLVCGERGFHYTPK
Chain of Glu(A14)Leu(B16)Ala(B25)Des(B30)-Insulin (ligand) (chain): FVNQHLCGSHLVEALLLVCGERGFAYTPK
Chain of Glu(A14)Glu(B3)Ile(B16)Ile(B25)Des(B30)-Insulin (ligand) (chain): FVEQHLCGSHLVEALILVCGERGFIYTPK
Chain of Glu(A14)Gly(A21)Glu(B3)Ile(B16)Trp(B25)Des(B30)-Insulin (ligand) (chain): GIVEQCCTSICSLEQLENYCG
Chain of Glu(A14)Gly(A21)Glu(B3)Ile(B16)Trp(B25)Des(B30)-Insulin (ligand) (chain): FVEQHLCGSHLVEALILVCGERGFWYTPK
Chain of Glu(A14)Gly(A21)Trp(B16)Des(B30)-Insulin (ligand) (chain): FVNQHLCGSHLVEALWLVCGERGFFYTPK
Chain of Glu(A14)Gly(A21)Glu(B3)Val(B25)Des(B30)-Insulin (ligand) (chain): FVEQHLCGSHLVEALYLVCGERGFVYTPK
Chain of Glu(A14)Gly(A21)Val(B16)Trp(B25)Des(B30)-Insulin (ligand) (chain): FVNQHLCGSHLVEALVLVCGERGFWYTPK
Chain of Glu(A14)Gly(A21)Glu(B3)Val(B16)Trp(B25)Des(B30)-Insulin (ligand) (chain): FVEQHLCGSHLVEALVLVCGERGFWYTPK
Chain of Glu(A14)Gly(A21)Glu(B3)Ile(B16)Val(B25)Des(B30)-Insulin (ligand) (chain): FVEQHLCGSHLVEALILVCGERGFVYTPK
Chain of Gly(A21)Trp(B16)Trp(B25)Des(B30)-Insulin (ligand) (chain): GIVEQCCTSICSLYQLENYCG
Chain of Gly(A21)Trp(B16)Trp(B25)Des(B30)-Insulin (ligand) (chain): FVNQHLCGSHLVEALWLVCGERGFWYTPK
Chain of Gly(A21)Trp(B16)His(B25)Des(B30)-Insulin (ligand) (chain): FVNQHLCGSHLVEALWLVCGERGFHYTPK
Chain of Leu(B25)Des(B30)-Insulin (human) (chain, as listed by the source, chain 1 of 2): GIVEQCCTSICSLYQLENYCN
Chain of Leu(B25)Des(B30)-Insulin (human) (chain, as listed by the source, chain 2 of 2): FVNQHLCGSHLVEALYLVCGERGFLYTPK
Chain of Ala(B25)Des(B30)-Insulin (ligand) (chain): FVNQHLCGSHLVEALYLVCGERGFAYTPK
Chain of Val(B16)Des(B30)-Insulin (ligand) (chain): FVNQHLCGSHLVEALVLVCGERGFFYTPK
Chain of Glu(A14)His(B16)Ala(B25)Des(B30)-Insulin (ligand) (chain): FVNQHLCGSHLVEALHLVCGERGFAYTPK
Chain of Glu(A14)Gly(A21)Trp(B25)Des(B30)-Insulin (human) (chain, as listed by the source, chain 2 of 2): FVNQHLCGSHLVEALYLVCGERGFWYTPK

Ala(B25)Des(B30)-Insulin (ligand) had an autophosphorylation activity relative to human insulin (relative to human insulin) in [1] of 0.17.

For the substance Cathepsin D (enzyme), the percent remaining insulin analog after 30 minutes with Cathepsin D in experiment [2] stood at 0%; in experiment [3], 62%; in experiment [5], 59%; in [6], 0%; in [7], 43%; with Ala(B25)-Insulin (human) it was 52%. Also, the percent remaining insulin analog after 30 minutes with Cathepsin D in experiment [8] came out at 20%. The same substance came in with a percent remaining insulin after 30 minutes with Cathepsin D in [4] of 0%.

Consider “Glu(A14)Glu(B3)Ile(B16)Ile(B25)Des(B30)-Insulin (ligand)”, for which the autophosphorylation activity relative to human insulin (relative to human insulin) in experiment [1] is 0.01. The Insulin-receptor binding affinity relative to human insulin (relative to human insulin) in experiment [9] was 0.

As to “Glu(A14)Glu(B3)Val(B16)Des(B30)-Insulin (ligand)”, the Insulin-receptor binding affinity relative to human insulin (relative to human insulin) in [10] was determined as 0.4. The same substance gave an autophosphorylation activity relative to human insulin (relative to human insulin) in experiment [1] of 0.28.

“Glu(A14)Glu(B3)Val(B16)Val(B25)Des(B30)-Insulin (ligand)”: the autophosphorylation activity relative to human insulin (relative to human insulin) in experiment [1] came to 0.02. Also, in experiment [9], the Insulin-receptor binding affinity relative to human insulin (relative to human insulin) was 0.

In turn, “Glu(A14)Glu(B16)His(B25)Des(B30)-Insulin (ligand)” showed an Insulin-receptor binding affinity relative to human insulin (relative to human insulin) in experiment [10] of 0.01. This substance gave an autophosphorylation activity relative to human insulin (relative to human insulin) in experiment [1] of 0.07.

In [10], “Glu(A14)Gly(A21)Glu(B3)Ile(B16)Trp(B25)Des(B30)-Insulin (ligand)” gave an Insulin-receptor binding affinity relative to human insulin (relative to human insulin) of 0.12. For the same substance, in experiment [1], the autophosphorylation activity relative to human insulin (relative to human insulin) stood at 0.13.

In turn, “Glu(A14)Gly(A21)Glu(B3)Ile(B16)Val(B25)Des(B30)-Insulin (ligand)” had an Insulin-receptor binding affinity relative to human insulin (relative to human insulin) in [10] of 0.01. The substance further came in with an autophosphorylation activity relative to human insulin (relative to human insulin) in experiment [1] of 0.02.

“Glu(A14)Gly(A21)Glu(B3)Val(B16)Trp(B25)Des(B30)-Insulin (ligand)” displayed an Insulin-receptor binding affinity relative to human insulin (relative to human insulin) in experiment [10] of 0.21. In addition, the autophosphorylation activity relative to human insulin (relative to human insulin) in experiment [1] worked out at 0.19.

The substance “Glu(A14)Gly(A21)Glu(B3)Val(B16)Val(B25)Des(B30)-Insulin (ligand)” had an Insulin-receptor binding affinity relative to human insulin (relative to human insulin) in [10] of 0.01. Also, the autophosphorylation activity relative to human insulin (relative to human insulin) in experiment [1] was determined as 0.01.

Turning to “Glu(A14)Gly(A21)Glu(B3)Val(B25)Des(B30)-Insulin (ligand)”, the Insulin-receptor binding affinity relative to human insulin (relative to human insulin) in [10] was 0.02. In experiment [1], this substance showed an autophosphorylation activity relative to human insulin (relative to human insulin) of 0.03.

With “Glu(A14)Gly(A21)Trp(B16)Des(B30)-Insulin (ligand)”, the Insulin-receptor binding affinity relative to human insulin (relative to human insulin) in experiment [10] is 0.63. This substance also gave an autophosphorylation activity relative to human insulin (relative to human insulin) in experiment [1] of 0.38.

In turn, “Glu(A14)Gly(A21)Val(B16)Trp(B25)Des(B30)-Insulin (ligand)” displayed an Insulin-receptor binding affinity relative to human insulin (relative to human insulin) in [10] of 0.17. Moreover, the autophosphorylation activity relative to human insulin (relative to human insulin) in experiment [1] turned out to be 0.23.

The substance “Glu(A14)His(B16)Ala(B25)Des(B30)-Insulin (ligand)” showed an autophosphorylation activity relative to human insulin (relative to human insulin) in [1] of 0.11.

Substance “Glu(A14)His(B16)Des(B30)-Insulin (ligand)” returned an Insulin-receptor binding affinity relative to human insulin (relative to human insulin) in experiment [10] of 0.36. The substance also yielded an autophosphorylation activity relative to human insulin (relative to human insulin) in [1] of 0.29.

“Glu(A14)His(B16)His(B25)Des(B30)-Insulin (ligand)” had an Insulin-receptor binding affinity relative to human insulin (relative to human insulin) in experiment [10] of 0.12. This substance also gave an autophosphorylation activity relative to human insulin (relative to human insulin) in experiment [1] of 0.11.

As for “Glu(A14)His(B16)His(B25)[16-[4-[[5-[2-[2-[2-[2-[2-(carboxymethyloxy)ethoxy]ethylamino]-2-oxoethoxy]ethoxy]-ethylcarbamoyl]pyrimidin-2-yl]sulfamoyl]phenoxy]hexadecanoic acid]Lys(B29)Des(B30)-insulin (ligand)”, the Insulin receptor B binding affinity relative to human insulin in [11] was below 20%.

“Glu(A14)Ile(B16)Des(B30)-Insulin (ligand)”: the Insulin-receptor binding affinity relative to human insulin (relative to human insulin) in experiment [10] is 0.23. The same substance showed an autophosphorylation activity relative to human insulin (relative to human insulin) in experiment [1] of 0.18.

“Glu(A14)Ile(B16)Val(B25)Des(B30)-Insulin (ligand)” returned an autophosphorylation activity relative to human insulin (relative to human insulin) in [1] of 0.04. The Insulin-receptor binding affinity relative to human insulin (relative to human insulin) in [9] was determined as 0.

Turning to “Glu(A14)Leu(B16)Ala(B25)Des(B30)-Insulin (ligand)”, the Insulin-receptor binding affinity relative to human insulin (relative to human insulin) in experiment [10] amounted to 0.01. This substance came in with an autophosphorylation activity relative to human insulin (relative to human insulin) in experiment [1] of 0.04.

Substance “Glu(A14)Val(B16)Des(B30)-Insulin (ligand)” registered an autophosphorylation activity relative to human insulin (relative to human insulin) in experiment [1] of 0.32.

“Glu(A14)Val(B16)Ile(B25)Des(B30)-Insulin (ligand)” yielded an autophosphorylation activity relative to human insulin (relative to human insulin) in [1] of 0.01. Further, the Insulin-receptor binding affinity relative to human insulin (relative to human insulin) in experiment [9] amounted to 0.

On to “Glu(A14)Val(B16)Val(B25)Des(B30)-Insulin (ligand)”, for which, in experiment [1], the autophosphorylation activity relative to human insulin (relative to human insulin) is 0.03. The same substance had an Insulin-receptor binding affinity relative to human insulin (relative to human insulin) in experiment [9] of 0.

“Gly(A21)Trp(B16)Des(B30)-Insulin (ligand)” returned an Insulin-receptor binding affinity relative to human insulin (relative to human insulin) in experiment [10] of 0.57. Moreover, the autophosphorylation activity relative to human insulin (relative to human insulin) in experiment [1] is 0.4.

In turn, “Gly(A21)Trp(B16)His(B25)Des(B30)-Insulin (ligand)” yielded an Insulin-receptor binding affinity relative to human insulin (relative to human insulin) in experiment [10] of 0.4. The autophosphorylation activity relative to human insulin (relative to human insulin) in experiment [1] was found to be 0.35.

Substance “Gly(A21)Trp(B16)Trp(B25)Des(B30)-Insulin (ligand)” gave an Insulin-receptor binding affinity relative to human insulin (relative to human insulin) in [10] of 0.43. In experiment [1], this substance registered an autophosphorylation activity relative to human insulin (relative to human insulin) of 0.38.

On to “Insulin analog 41 (Glu(A14)His(B16)His(B25)Des(B30)-insulin) (ligand)”, for which the Insulin receptor B binding affinity relative to human insulin in experiment [11] is below 20%.

In experiment [1], Val(B16)Des(B30)-Insulin (ligand) came in with an autophosphorylation activity relative to human insulin (relative to human insulin) of 0.32.

For insulin degrading enzyme (IDE), the percent remaining insulin analog after 30 minutes with insulin degrading enzyme, IDE in experiment [12] was 41%; in experiment [2], 81%; in experiment [13] it was 88%; in experiment [3], 86%; in [5] it was 86%; in experiment [6] it was 98%. The percent remaining insulin analog after 30 minutes with insulin degrading enzyme, IDE came out at 11% in experiment [7]; 12% in experiment [14]; 2% in the experiment with Ala(B25)-Insulin (human); 80% in experiment [15]; 77% in experiment [8]. The substance also returned a percent remaining insulin after 30 minutes with insulin degrading enzyme, IDE in [4] of 38%.

In the case of “purified pepsin (from porcine stomach mucosa) in simulated gastric fluid (from UniProt P00791) (enzyme)”, the percent remaining insulin analog after 30 minutes in gastric fluid is 0% in experiment [2]; 36% in [3]; 52% in experiment [5]; 0% in experiment [6]; 44% in experiment [7]; 30% with Ala(B25)-Insulin (human). Also, in experiment [8], the percent remaining insulin analog after 30 minutes in gastric fluid was found to be 52%. The substance further registered a percent remaining insulin after 30 minutes in gastric fluid in [4] of 0%.

For the substance α-Chymotrypsin (enzyme), the percent remaining insulin analog after 120 minutes with α-Chymotrypsin in [2] amounted to 35%; in experiment [3], 34%; in experiment [5] it was 40%; in experiment [6], 30%; in [7], 31%; in the experiment with Ala(B25)-Insulin (human), 58%. In addition, the percent remaining insulin analog after 120 minutes with α-Chymotrypsin in experiment [8] turned out to be 99%. This substance showed a percent remaining insulin after 120 minutes with α-Chymotrypsin in experiment [4] of 5%.
